In this assay the target is T1, human EpCAM-mFc (human).
T1 chain: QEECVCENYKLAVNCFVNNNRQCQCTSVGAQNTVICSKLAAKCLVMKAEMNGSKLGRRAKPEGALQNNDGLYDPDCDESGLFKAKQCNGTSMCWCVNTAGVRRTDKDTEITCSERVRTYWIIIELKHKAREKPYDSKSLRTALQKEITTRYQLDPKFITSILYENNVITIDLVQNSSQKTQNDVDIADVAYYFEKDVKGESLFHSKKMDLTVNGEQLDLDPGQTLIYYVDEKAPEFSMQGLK
Description: ELISA. Background: An ELISA detects its analyte on a solid surface through an enzyme-linked reagent.

Residue numbers refer to the chain shown, from its start.

B1: EP101-3014 (1565-Y) (antibody)
chain 1: QVQLVQSGAEVKKPGASVKVSCKASGYTFTNYYIHWVRQAPGQRLEYIGWIYPGNVYIQYNEKFKGRATLTADKSASTAYMELSSLRSEDTAVYYCARDGYWFAYWGQGTLVTVSS
chain 2: QGQSGQGSWCHSATDTILPCSNGGGSSGGAVGLLAPPGGLSGRSDNIGGSDIVLTQTPLSLSVTPGQPASISCRSSRSLLHSDGFTYLYWFLQKPGQSPQLLIYQTSNLASGVPDRFSSSGSGTDFTLKISRVEAEDVGVYYCAQNLELPNTFGQGTKLEIK
Broadly, the Kd is the equilibrium constant for the complex coming apart. Consider B1, for which binding was put at a Kd of 389 nM.

B2: EP02-3014 (1361-H) (antibody)
chain 1: B1 chain 1 with Y33H, Y101P
chain 2: QGQSGQGLSCTHSRYDMHCPHMGGGSSGGAVGLLAPPGGLSGRSDNIGGSDIVLTQTPLSLSVTPGQPASISCRSSRSLLHSDGFTYLYWFLQKPGQSPQLLIYQTSNLASGVPDRFSSSGSGTDFTLKISRVEAEDVGVYYCAQNLELPNTFGQGTKLEIK
For B2, the dissociation constant Kd was found to be 0.44 nM.

B3: EP05-3014 (1361-H) (antibody)
chain 1: B1 chain 1 with Y33H, Y101P
chain 2: QGQSGQGWWPPCQGGAWCEQRIGGGSSGGAVGLLAPPGGLSGRSDNIGGSDIVLTQTPLSLSVTPGQPASISCRSSRSLLHSDGFTYLYWFLQKPGQSPQLLIYQTSNLASGVPDRFSSSGSGTDFTLKISRVEAEDVGVYYCAQNLELPNTFGQGTKLEIK
The molecule B3 showed a Kd of 0.46 nM.

B4: EP106-3014 (1361-H) (antibody)
chain 1: B1 chain 1 with Y33H, Y101P
chain 2: QGQSGQGFCSGYSPSVLPSCLMGGGSSGGAVGLLAPPGGLSGRSDNIGGSDIVLTQTPLSLSVTPGQPASISCRSSRSLLHSDGFTYLYWFLQKPGQSPQLLIYQTSNLASGVPDRFSSSGSGTDFTLKISRVEAEDVGVYYCAQNLELPNTFGQGTKLEIK
As to B4, the affinity, expressed as Kd, was 348 nM.

B5: EP01-3014 (1565-Y) (antibody)
chain 1: B1 chain 1
chain 2: QGQSGQGPLMTCSDYYTCKNNLGGGSSGGAVGLLAPPGGLSGRSDNIGGSDIVLTQTPLSLSVTPGQPASISCRSSRSLLHSDGFTYLYWFLQKPGQSPQLLIYQTSNLASGVPDRFSSSGSGTDFTLKISRVEAEDVGVYYCAQNLELPNTFGQGTKLEIK
Regarding B5, the Kd worked out at 0.66 nM. Compared with the last molecule, the Kd is about 530-fold lower.

B6: EP107-3-3014 (1361-H) (antibody)
chain 1: B1 chain 1 with Y33H, Y101P
chain 2: QGQSGQGSLPCSYMHPYCFYNSGGGSSGGAVGLLAPPGGLSGRSDNIGGSDIVLTQTPLSLSVTPGQPASISCRSSRSLLHSDGFTYLYWFLQKPGQSPQLLIYQTSNLASGVPDRFSSSGSGTDFTLKISRVEAEDVGVYYCAQNLELPNTFGQGTKLEIK
The molecule B6 had a Kd of 44 nM.

B7: EP110-3014 (1361-H) (antibody)
chain 1: B1 chain 1 with Y33H, Y101P
chain 2: QGQSGQGPRPHCAILRQCLAATGGGSSGGAVGLLAPPGGLSGRSDNIGGSDIVLTQTPLSLSVTPGQPASISCRSSRSLLHSDGFTYLYWFLQKPGQSPQLLIYQTSNLASGVPDRFSSSGSGTDFTLKISRVEAEDVGVYYCAQNLELPNTFGQGTKLEIK
Take B7: the Kd amounted to 336 nM.

B8: EP107-1-3014 (1361-H) (antibody)
chain 1: B1 chain 1 with Y33H, Y101P
chain 2: B6 chain 2 with L9R
For B8, the Kd was determined as 31 nM.

B9: EP104-3014 (1565-Y) (antibody)
chain 1: B1 chain 1
chain 2: QGQSGQGTTRCEHYWFTCPLSPGGGSSGGAVGLLAPPGGLSGRSDNIGGSDIVLTQTPLSLSVTPGQPASISCRSSRSLLHSDGFTYLYWFLQKPGQSPQLLIYQTSNLASGVPDRFSSSGSGTDFTLKISRVEAEDVGVYYCAQNLELPNTFGQGTKLEIK
Regarding B9, binding was put at a Kd of 126 nM.

B10: EP04-3014 (1565-Y) (antibody)
chain 1: B1 chain 1
chain 2: QGQSGQGWCPRLFDRPSMGCPTGGGSSGGAVGLLAPPGGLSGRSDNIGGSDIVLTQTPLSLSVTPGQPASISCRSSRSLLHSDGFTYLYWFLQKPGQSPQLLIYQTSNLASGVPDRFSSSGSGTDFTLKISRVEAEDVGVYYCAQNLELPNTFGQGTKLEIK
Consider B10, for which the Kd was 26.9 nM.

B11: EP102-3014 (1565-Y) (antibody)
chain 1: B1 chain 1
chain 2: QGQSGQGSPACSDRYYQTCVLNGGGSSGGAVGLLAPPGGLSGRSDNIGGSDIVLTQTPLSLSVTPGQPASISCRSSRSLLHSDGFTYLYWFLQKPGQSPQLLIYQTSNLASGVPDRFSSSGSGTDFTLKISRVEAEDVGVYYCAQNLELPNTFGQGTKLEIK
As for B11, the Kd was determined as 72.5 nM.

B12: EP03-3014 (1565-Y) (antibody)
chain 1: B1 chain 1
chain 2: B1 chain 2 with S8H, W9Y, A13R, L18T, P19H, S21N, N22A
Take B12: the equilibrium dissociation constant (Kd) came out at 64.4 nM.

B13: EP109-3014 (1361-H) (antibody)
chain 1: B1 chain 1 with Y33H, Y101P
chain 2: QGQSGQGPNTCMSERRICSLTYGGGSSGGAVGLLAPPGGLSGRSDNIGGSDIVLTQTPLSLSVTPGQPASISCRSSRSLLHSDGFTYLYWFLQKPGQSPQLLIYQTSNLASGVPDRFSSSGSGTDFTLKISRVEAEDVGVYYCAQNLELPNTFGQGTKLEIK
Molecule B13 showed a Kd of 512 nM. Compared with the last molecule, the Kd is about 8-fold higher.

B14: EP107-2-3014 (1361-H) (antibody)
chain 1: B1 chain 1 with Y33H, Y101P
chain 2: B6 chain 2 with L9H
B14 came in with a dissociation constant (Kd) of 44 nM.

B15: EP11-3014 (1565-Y) (antibody)
chain 1: B1 chain 1
chain 2: QGQSGQGFICPTLYDRPHCMHTGGGSSGGAVGLLAPPGGLSGRSDNIGGSDIVLTQTPLSLSVTPGQPASISCRSSRSLLHSDGFTYLYWFLQKPGQSPQLLIYQTSNLASGVPDRFSSSGSGTDFTLKISRVEAEDVGVYYCAQNLELPNTFGQGTKLEIK
In turn, B15 returned an equilibrium dissociation constant (Kd) of 38 nM.

B16: EP03-3014 (1361-H) (antibody)
chain 1: B1 chain 1 with Y33H, Y101P
chain 2: B1 chain 2 with S8H, W9Y, A13R, L18T, P19H, S21N, N22A
Molecule B16 displayed a dissociation constant Kd of 4 nM.

B17: EP05-3014 (1565-Y) (antibody)
chain 1: B1 chain 1
chain 2: B3 chain 2
The molecule B17 yielded a Kd of 8.6 nM.

The record behind these values is US20260355338 (published 2026).
